The experiment addresses KhpB from Thermus thermophilus (Thermus thermophilus HB8). In words: SEC. In general terms: In gel filtration, larger molecules generally elute earlier.

Stoichiometry N data for one substance are collected here from PMC12408800.

Usually stoichiometry N stands for a count of units in the complex or per binding partner.

The substance “KhpB from Thermus thermophilus (natural protein)” registered a stoichiometry N of 2.
